Data from PMC9482650, “Quantitative fragmentomics allow affinity mapping of interactomes” (Nature Communications, 2022).

Assays:
Assay in all cases: holdup assay
Design in all cases: key: below the threshold = too weak to quantify, mostly under pKd 3.1 to 4
AHNAK1, Q09666 = target: AHNAK1, Q09666
DLG1_3, Q12959 = target: DLG1_3, Q12959
FRMPD1, Q5SYB0 = target: T1, FRMPD1, Q5SYB0
T1 sequence (Q5SYB0 52-145, limits assumed, looked up): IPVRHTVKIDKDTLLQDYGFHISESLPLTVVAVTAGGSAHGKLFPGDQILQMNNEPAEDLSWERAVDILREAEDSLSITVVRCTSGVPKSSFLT

FRMPD2_1, Q68DX3 = target: FRMPD2_1, Q68DX3
GRID2IP_1, A4D2P6 = target: GRID2IP_1, A4D2P6
GRIP1_2, Q9Y3R0 = target: T2, GRIP1_2, Q9Y3R0
T2 sequence (Q9Y3R0 145-248, limits assumed, looked up): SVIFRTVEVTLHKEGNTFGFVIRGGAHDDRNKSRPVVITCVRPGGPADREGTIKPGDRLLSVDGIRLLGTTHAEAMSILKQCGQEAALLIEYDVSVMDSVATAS

GRIP2_7, Q9C0E4 = target: GRIP2_7, Q9C0E4
HTRA4, P83105 = target: T3, HTRA4, P83105
T3 sequence (P83105 378-476, limits assumed, looked up): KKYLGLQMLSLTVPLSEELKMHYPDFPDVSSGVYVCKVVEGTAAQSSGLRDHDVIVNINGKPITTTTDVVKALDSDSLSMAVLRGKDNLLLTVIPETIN

IL16_1, Q14005 = target: IL16_1, Q14005
IL16_4, Q14005 = target: IL16_4, Q14005
Inadl_1, Q8NI35 = target: Inadl_1, Q8NI35
Inadl_2, Q8NI35 = target: Inadl_2, Q8NI35
Inadl_3, Q8NI35 = target: Inadl_3, Q8NI35
MAGI1_1, Q96QZ7 = target: MAGI1_1, Q96QZ7
MAGI2_3, Q86UL8 = target: MAGI2_3, Q86UL8
MAGI2_4, Q86UL8 = target: MAGI2_4, Q86UL8
MAGI2_5, Q86UL8 = target: MAGI2_5, Q86UL8
MPDZ_12, O75970 = target: T4, MPDZ_12, O75970
T4 sequence (O75970 1857-1958, limits assumed, looked up): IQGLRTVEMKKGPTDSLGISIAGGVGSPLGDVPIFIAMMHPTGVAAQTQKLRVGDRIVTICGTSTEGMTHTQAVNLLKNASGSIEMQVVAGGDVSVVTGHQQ

MPDZ_5, O75970 = target: T5, MPDZ_5, O75970
T5 sequence (O75970 695-796, limits assumed, looked up): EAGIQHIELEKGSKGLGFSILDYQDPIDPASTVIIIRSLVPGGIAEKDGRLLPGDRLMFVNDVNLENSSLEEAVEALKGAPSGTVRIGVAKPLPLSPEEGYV

MPP7, Q5T2T1 = target: T6, MPP7, Q5T2T1
T6 sequence (Q5T2T1 134-230, limits assumed, looked up): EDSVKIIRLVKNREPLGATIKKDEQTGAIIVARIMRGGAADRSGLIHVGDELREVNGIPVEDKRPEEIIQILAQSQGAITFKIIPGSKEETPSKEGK

NHERF2_2, Q15599 = target: NHERF2_2, Q15599
NHERF3_3, Q5T2W1 = target: T7, NHERF3_3, Q5T2W1
T7 sequence (Q5T2W1 238-333, limits assumed, looked up): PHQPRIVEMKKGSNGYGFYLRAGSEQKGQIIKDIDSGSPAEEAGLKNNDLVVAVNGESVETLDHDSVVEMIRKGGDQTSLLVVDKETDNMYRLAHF

NHERF4_2, Q86UT5 = target: NHERF4_2, Q86UT5
PDZRN4_1, Q6ZMN7 = target: PDZRN4_1, Q6ZMN7
SNTB1, Q13884 = target: T8, SNTB1, Q13884
T8 sequence (Q13884 107-205, limits assumed, looked up): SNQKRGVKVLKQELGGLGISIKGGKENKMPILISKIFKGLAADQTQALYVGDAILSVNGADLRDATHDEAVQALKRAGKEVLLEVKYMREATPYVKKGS

TIAM2, Q8IVF5 = target: T9, TIAM2, Q8IVF5
T9 sequence (Q8IVF5 885-986, limits assumed, looked up): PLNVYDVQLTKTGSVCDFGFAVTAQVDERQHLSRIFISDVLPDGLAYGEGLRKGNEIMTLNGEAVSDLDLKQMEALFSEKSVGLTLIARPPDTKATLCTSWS

TJP2_1, Q9UDY2 = target: TJP2_1, Q9UDY2
TJP3_3, O95049 = target: T10, TJP3_3, O95049
T10 sequence (O95049 375-456, limits assumed, looked up): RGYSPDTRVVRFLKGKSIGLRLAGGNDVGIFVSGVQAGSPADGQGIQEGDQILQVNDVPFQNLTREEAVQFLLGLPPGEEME

[1] = plain residues with an end cap or a label only (N-terminal biotin on a linker: ado-ado)
[2] = plain residues with an end cap or a label only (N-terminal biotin on a linker: ahx)
[3] = plain residues with an end cap or a label only (N-terminal biotin on a linker: ttds)

Sequence of GRIP2_7, Q9C0E4 (Q9C0E4 934-1023): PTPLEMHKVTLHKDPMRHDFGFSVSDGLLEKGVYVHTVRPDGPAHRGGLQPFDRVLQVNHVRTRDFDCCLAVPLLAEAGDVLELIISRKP
Sequence of MAGI2_5, Q86UL8 (Q86UL8 915-1017): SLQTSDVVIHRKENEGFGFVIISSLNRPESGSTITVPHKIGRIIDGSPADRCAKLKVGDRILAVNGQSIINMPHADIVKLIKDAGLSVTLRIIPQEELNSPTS
Sequence of AHNAK1, Q09666 (Q09666 4-100): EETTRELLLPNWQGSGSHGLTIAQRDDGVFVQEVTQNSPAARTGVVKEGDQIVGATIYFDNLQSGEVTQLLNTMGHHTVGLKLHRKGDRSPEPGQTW
Sequence of GRID2IP_1, A4D2P6 (A4D2P6 1-87): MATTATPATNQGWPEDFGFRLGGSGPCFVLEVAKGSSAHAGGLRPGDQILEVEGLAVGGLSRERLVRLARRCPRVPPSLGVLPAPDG
Sequence of PDZRN4_1, Q6ZMN7 (Q6ZMN7 213-318): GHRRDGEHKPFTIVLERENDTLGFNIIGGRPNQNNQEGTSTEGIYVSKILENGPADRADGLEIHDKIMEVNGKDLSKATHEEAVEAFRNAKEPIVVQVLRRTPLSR
Sequence of TJP2_1, Q9UDY2 (Q9UDY2 24-128): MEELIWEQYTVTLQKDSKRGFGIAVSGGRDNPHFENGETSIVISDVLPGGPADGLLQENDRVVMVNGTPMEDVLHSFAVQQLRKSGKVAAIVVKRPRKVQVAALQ
Sequence of Inadl_3, Q8NI35 (Q8NI35 359-469): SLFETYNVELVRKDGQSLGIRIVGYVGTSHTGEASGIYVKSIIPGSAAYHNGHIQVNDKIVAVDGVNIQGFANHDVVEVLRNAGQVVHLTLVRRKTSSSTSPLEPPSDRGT
Sequence of MAGI2_4, Q86UL8 (Q86UL8 772-865): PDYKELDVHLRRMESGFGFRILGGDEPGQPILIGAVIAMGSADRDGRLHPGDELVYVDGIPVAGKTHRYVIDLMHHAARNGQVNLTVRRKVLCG
Sequence of MAGI2_3, Q86UL8 (Q86UL8 600-682): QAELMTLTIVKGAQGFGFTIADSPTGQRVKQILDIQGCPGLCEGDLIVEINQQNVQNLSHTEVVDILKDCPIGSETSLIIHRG
Sequence of DLG1_3, Q12959 (Q12959 457-571): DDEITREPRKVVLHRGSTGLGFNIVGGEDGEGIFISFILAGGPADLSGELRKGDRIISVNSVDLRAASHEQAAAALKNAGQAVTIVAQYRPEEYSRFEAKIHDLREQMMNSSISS
Sequence of Inadl_1, Q8NI35 (Q8NI35 113-229): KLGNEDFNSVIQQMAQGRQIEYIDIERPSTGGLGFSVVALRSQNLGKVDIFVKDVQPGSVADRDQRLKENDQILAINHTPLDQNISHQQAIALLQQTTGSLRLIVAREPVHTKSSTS
Sequence of Inadl_2, Q8NI35 (Q8NI35 238-335): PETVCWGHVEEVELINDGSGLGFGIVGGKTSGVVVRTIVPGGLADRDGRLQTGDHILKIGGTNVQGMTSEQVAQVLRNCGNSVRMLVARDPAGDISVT
Sequence of IL16_4, Q14005 (Q14005 1229-1329): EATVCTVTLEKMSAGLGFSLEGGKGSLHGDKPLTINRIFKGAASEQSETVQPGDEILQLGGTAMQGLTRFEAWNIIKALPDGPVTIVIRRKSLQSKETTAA
Sequence of IL16_1, Q14005 (Q14005 210-306): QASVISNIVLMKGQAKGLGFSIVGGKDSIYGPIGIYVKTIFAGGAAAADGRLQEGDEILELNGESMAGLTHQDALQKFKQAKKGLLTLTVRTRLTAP
Sequence of MAGI1_1, Q96QZ7 (Q96QZ7 1-106): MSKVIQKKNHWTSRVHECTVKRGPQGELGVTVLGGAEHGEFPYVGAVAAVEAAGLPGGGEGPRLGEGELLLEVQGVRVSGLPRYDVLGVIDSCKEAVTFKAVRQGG
Sequence of FRMPD2_1, Q68DX3 (Q68DX3 770-861): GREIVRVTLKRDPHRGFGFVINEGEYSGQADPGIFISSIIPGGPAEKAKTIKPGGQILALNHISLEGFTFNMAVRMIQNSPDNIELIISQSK
Sequence of NHERF2_2, Q15599 (Q15599 142-238): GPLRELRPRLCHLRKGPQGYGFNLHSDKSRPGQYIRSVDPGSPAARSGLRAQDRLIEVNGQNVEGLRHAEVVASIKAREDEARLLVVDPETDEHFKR
Sequence of NHERF4_2, Q86UT5 (Q86UT5 220-308): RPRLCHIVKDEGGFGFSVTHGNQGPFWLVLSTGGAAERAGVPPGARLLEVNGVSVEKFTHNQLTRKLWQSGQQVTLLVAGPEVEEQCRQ

B1: U2AF2, P26368 (peptide)
chain: PDSYHRRDFW
B1 was tested, and the pKd (AHNAK1, Q09666; [1]) was “below the threshold”, the pKd (DLG1_3, Q12959; [1]) was 3.72 and the pKd (FRMPD1, Q5SYB0; [1]) was “below the threshold”. The pKd (FRMPD2_1, Q68DX3; [1]) was “below the threshold”, the pKd (GRID2IP_1, A4D2P6; [1]) was “below the threshold” and the pKd (GRIP1_2, Q9Y3R0; [1]) was “below the threshold”. The pKd (GRIP2_7, Q9C0E4; [1]) was “below the threshold”, the pKd (HTRA4, P83105; [1]) was 3.99 and the pKd (IL16_1, Q14005; [1]) was “below the threshold”. For the same binder, the pKd (IL16_4, Q14005; [1]) was 3.68, the pKd (Inadl_1, Q8NI35; [1]) was “below the threshold” and the pKd (Inadl_2, Q8NI35; [1]) was “below the threshold”. For the same binder, the pKd (Inadl_3, Q8NI35; [1]) was “below the threshold”, the pKd (MAGI1_1, Q96QZ7; [1]) was “below the threshold” and the pKd (MAGI2_3, Q86UL8; [1]) was “below the threshold”. The pKd (MAGI2_4, Q86UL8; [1]) was 3.54, the pKd (MAGI2_5, Q86UL8; [1]) was “below the threshold” and the pKd (MPDZ_12, O75970; [1]) was “below the threshold”. For the same binder, the pKd (MPDZ_5, O75970; [1]) was “below the threshold”, the pKd (MPP7, Q5T2T1; [1]) was “below the threshold” and the pKd (NHERF2_2, Q15599; [1]) was 3.79. For the same binder, the pKd (NHERF3_3, Q5T2W1; [1]) was “below the threshold”, the pKd (NHERF4_2, Q86UT5; [1]) was 3.64 and the pKd (PDZRN4_1, Q6ZMN7; [1]) was 3.89. For the same binder, the pKd (SNTB1, Q13884; [1]) was “below the threshold”, the pKd (TIAM2, Q8IVF5; [1]) was “below the threshold” and the pKd (TJP2_1, Q9UDY2; [1]) was 3.56. The pKd (TJP3_3, O95049; [1]) was “below the threshold”.

B2: DLL1, O00548 (peptide)
chain: KDECVIATEV
In the case of B2, the pKd (AHNAK1, Q09666; [2]) is reported as “below the threshold”, the pKd (DLG1_3, Q12959; [2]) is reported as “below the threshold” and the pKd (FRMPD1, Q5SYB0; [2]) is reported as “below the threshold”. The pKd (FRMPD2_1, Q68DX3; [2]) was “below the threshold”, the pKd (GRID2IP_1, A4D2P6; [2]) was “below the threshold” and the pKd (GRIP1_2, Q9Y3R0; [2]) was “below the threshold”. For the same binder, the pKd (GRIP2_7, Q9C0E4; [2]) was “below the threshold”, the pKd (HTRA4, P83105; [2]) was 3.53 and the pKd (IL16_1, Q14005; [2]) was 3.47. For the same binder, the pKd (IL16_4, Q14005; [2]) was “below the threshold”, the pKd (Inadl_1, Q8NI35; [2]) was “below the threshold” and the pKd (Inadl_2, Q8NI35; [2]) was “below the threshold”. For the same binder, the pKd (Inadl_3, Q8NI35; [2]) was 3.5, the pKd (MAGI1_1, Q96QZ7; [2]) was “below the threshold” and the pKd (MAGI2_3, Q86UL8; [2]) was “below the threshold”. For the same binder, the pKd (MAGI2_4, Q86UL8; [2]) was 3.64, the pKd (MAGI2_5, Q86UL8; [2]) was 5.32 and the pKd (MPDZ_12, O75970; [2]) was “below the threshold”. For the same binder, the pKd (MPDZ_5, O75970; [2]) was “below the threshold”, the pKd (MPP7, Q5T2T1; [2]) was “below the threshold” and the pKd (NHERF2_2, Q15599; [2]) was “below the threshold”. For the same binder, the pKd (NHERF3_3, Q5T2W1; [2]) was “below the threshold”, the pKd (NHERF4_2, Q86UT5; [2]) was “below the threshold” and the pKd (PDZRN4_1, Q6ZMN7; [2]) was “below the threshold”. For the same binder, the pKd (SNTB1, Q13884; [2]) was 3.64, the pKd (TIAM2, Q8IVF5; [2]) was “below the threshold” and the pKd (TJP2_1, Q9UDY2; [2]) was “below the threshold”. For the same binder, the pKd (TJP3_3, O95049; [2]) was “below the threshold”.

B3: GDA, Q9Y2T3 (peptide)
chain: KQVVPFSSSV
B3 was tested, and the pKd (AHNAK1, Q09666; [3]) was “below the threshold”, the pKd (DLG1_3, Q12959; [3]) was “below the threshold” and the pKd (FRMPD1, Q5SYB0; [3]) was “below the threshold”. The pKd (FRMPD2_1, Q68DX3; [3]) was “below the threshold”, the pKd (GRID2IP_1, A4D2P6; [3]) was “below the threshold” and the pKd (GRIP1_2, Q9Y3R0; [3]) was “below the threshold”. The pKd (GRIP2_7, Q9C0E4; [3]) was “below the threshold”, the pKd (HTRA4, P83105; [3]) was “below the threshold” and the pKd (IL16_1, Q14005; [3]) was 3.86. For the same binder, the pKd (IL16_4, Q14005; [3]) was “below the threshold”, the pKd (Inadl_1, Q8NI35; [3]) was “below the threshold” and the pKd (Inadl_2, Q8NI35; [3]) was “below the threshold”. For the same binder, the pKd (Inadl_3, Q8NI35; [3]) was “below the threshold”, the pKd (MAGI1_1, Q96QZ7; [3]) was “below the threshold” and the pKd (MAGI2_3, Q86UL8; [3]) was “below the threshold”. It also gave a pKd (MAGI2_4, Q86UL8; [3]) of 3.69, a pKd (MAGI2_5, Q86UL8; [3]) of 3.74 and a pKd (MPDZ_12, O75970; [3]) of 3.66. The pKd (MPDZ_5, O75970; [3]) was 3.52, the pKd (MPP7, Q5T2T1; [3]) was “below the threshold” and the pKd (NHERF2_2, Q15599; [3]) was “below the threshold”. The pKd (NHERF3_3, Q5T2W1; [3]) was “below the threshold”, the pKd (NHERF4_2, Q86UT5; [3]) was “below the threshold” and the pKd (PDZRN4_1, Q6ZMN7; [3]) was 3.49. For the same binder, the pKd (SNTB1, Q13884; [3]) was 3.65, the pKd (TIAM2, Q8IVF5; [3]) was “below the threshold” and the pKd (TJP2_1, Q9UDY2; [3]) was “below the threshold”. The pKd (TJP3_3, O95049; [3]) was “below the threshold”.
